Source: PMC2493294

Biological target: t-SNARE complex (syntaxin HT and SNAP-25) (rat) (UniProt P32851)
Test: EPR spectroscopy

complexin I C105A R56C, spin-labeled at position 56 (from UniProt P63041 2-134) (natural protein)
Kd: 50 µM
